Measurements as given in patent US12404345B2, “Humanized antibodies against iRHOM2” (SCIRHOM GMBH, priority 2021, dated 2025).

Key:
[1] = system: RH-30 cells; experiment: FACS binding to RH-30 cells endogenously negative for iRhom2; design: species or system human; settings: antibody at 3 μg/ml
Experimental: In this study, binding specificity analyses of the humanized antibody 42-B-02 as a representative example of the antibodies of the invention in cell lines endogenously expressing iRhom2 were performed. The studies were conducted on RPMI-8226 cells, a human B lymphocytic cell line endogenously expressing iRhom2 but being endogenously negative for iRhom1, on THP-1 cells, a human monocytic cell line endogenously expressing both iRhom2 and iRhom1 and on RH-30 cells, a human […] cell line endogenously negative for iRhom2 but endogenously expressing iRhom1.
In brief, human RPMI-8226 cells (Deutsche Sammlung von Mikroorganismen und Zellkulturen, Germany), THP-1 cells (American Type Culture Collection, USA) and RH-30 cells (Deutsche Sammlung von Mikroorganismen und Zellkulturen, Germany) were harvested with 10 mM EDTA in PBS, washed and resuspended in FACS buffer (PBS, 3% FBS, 0.05% sodium azide), and seeded in Nunc U-bottom 96-well plates (Thermo Fisher Scientific, USA) at approximately 2×10^5 cells per well. In order to pellet cells and remove supernatants, the plates were centrifuged at 1,500 rpm and 4° C. for 3 minutes. […] Finally, cells were resuspended in 150 μl per well of FACS buffer and analyzed using a BD Accuri™ C6 Plus flow cytometer (Becton Dickinson, Germany).

[2] = system: LPS-induced release of endogenous TNFα; experiment: Mouse model for septic shock, LPS-induced TNFα release in serum of genetically humanized mice; format: in vivo; settings: antibody 250 μg/kg in 200 μL PBS injected 1h before LPS 50 μg per mouse; serum 2h after LPS
Experimental: In the following study, ELISA-based TNFα release assays were performed to verify the inhibitory effects of the antibodies of the invention on LPS-induced release of endogenous TNFα in a mouse model for septic shock. The experiment was conducted using genetically humanized mice, in which parts of the mouse genomic iRhom2 DNA (exons which encode for the antibody binding site) were replaced by the corresponding human genomic DNA sequences. All animal experiments were approved by the Institutional Animal Care and Use Committee of the Hospital for Special Surgery and Weill Cornell Medicine.
On day 1, one group of mice was injected with the antibodies of the invention at a concentration of 250 μg/kg in 200 μL PBS. A second group was injected with the same volume of PBS only (200 μl PBS per mouse). 1h later all mice were subjected to an injection of LPS (Sigma, USA) at a concentration of 50 μg/200 μL per mouse (250 ng/μL). All mice were closely monitored and euthanized after 2h by CO2 inhalation. […]
For measuring TNFα release, Mouse TNF-α Uncoated ELISA Kit (Invitrogen, USA) was used. […] The color reaction was stopped by the addition of 100 μl 2N sulfuric acid (Sigma, USA) and the ELISA plate was read at the wavelength of 450 nm using a Multiskan Titertek Plate reader (VWR, USA).

B1: 42-B-02: humanized antibody binding human iRhom2; HCVD SEQ ID NO 33, LCVD SEQ ID NO 37 (antibody, V domains shown)
VH: QVTLRESGPALVKPTQTLTLTCTFSGFSLSTFGRGVGWIRQPPGKALEWLAHIWWDDEKYYNSALKSRLTISKDTSKNQVVLTITNMDPVDTATYYCARIQNYGSNYWYFDVWGQGTLVTVSS
VL: AIQLTQSPSSLSASVGDRVTITCRASSRISYMFWYQQKPGKAPKVLIYDTSNLASGVPSRFSGSGSGTDYTLTISSLQPEDFATYYCQQWNSYPLTFGQGTKLEIK
modifications: antibody sequences
binding to RH-30 cells (endogenously negative for iRhom2, expressing iRhom1) [1]: no binding | LPS-induced release of TNFα in serum of genetically humanized mice, percent release (buffer treated control animals set to 100%) [2]: 17.3%
